From publication PMC5359911

Key:
[1] = molecular target: smooth muscle tropomyosin, purified α/β heterodimer of chicken gizzard Tpm1.4 and Tpm2.1 (chicken); test: pull-down; Tpm covalently bound to CNBr-activated Sepharose (40 uL); 200 ug SMTNL1-TMB; 20 mM Tris-HCl pH 7.5, 0.1% beta-mercaptoethanol, 2 h at 4 C; washed with 150 mM NaCl; Coomassie stain, densitometry
[2] = molecular target: smooth muscle tropomyosin, purified α/β heterodimer of chicken gizzard Tpm1.4 and Tpm2.1 (chicken); test: SPR; BIAcore X100; Tpm amine-coupled to CM5 chip; SMTNL1-TMB 0.12-10 uM injected; 20 mM HEPES pH 7.5, 100 mM KCl, 1 mM DTT, 0.005% Tween-20; 25 C; n = 3
[3] = molecular target: SMTNL1-TMB, Tpm-binding region of smoothelin-like 1 protein (amino acids 195-459), unphosphorylated (UniProt Q99LM3); test: pull-down; competition, apo-CaM: SMTNL1-TMB premixed with Tpm (equimolar or other molar ratios) for 1 h at 4 C, then added to CaM-Sepharose with 1 mM EDTA

Row | fold recovered against unphosphorylated SMTNL1-TMB [1] [fold] | Kd [2] [nM] | percent reduction of SMTNL1-TMB binding to apo-CaM-Sepharose by equimolar Tpm [3] [%] | Substance
1 | 2 | 320 |  | SMTNL1-TMB phosphorylated at Ser301 with PKA (from UniProt Q99LM3 195-459) (domain or fragment)
2 |  | 3000 |  | SMTNL1-TMB, Tpm-binding region of smoothelin-like 1 protein (amino acids 195-459), unphosphorylated (from UniProt Q99LM3 195-459) (domain or fragment)
3 |  |  | 60 | smooth muscle tropomyosin, purified α/β heterodimer of chicken gizzard Tpm1.4 and Tpm2.1 (complex)
